# Assay results taken from doi:10.1101/543108.
# Target: ATP synthase c-subunit (c10-ring) (Polytomella sp.)
# Assay: cryo-EM structure
substance,measurement,value
ATP synthase c-subunit (c10-ring) (natural protein),stoichiometry N,10
